Results on three molecules are retold here after US20250215103A1 (Hoffmann-La Roche, published 2025).

For assay [1], the target named is T1, human PD1 on cells (Jurkat cells expressing human PD1; activated human T cells) (human, UniProt Q15116 25-288). Description: cell-based or functional assay.
Assay [2] has as its target T1, human PD1 on cells (Jurkat cells …). Briefly: cell-based or functional assay. This is another data set of the same source.
The target is the same in assay [3]. Description: cell-based or functional assay. This is another data set of the same source.
The target of assay [4] is T2, human TfR on cells (Jurkat cells; activated human T cells) (human, UniProt P02786 1-760).
T2 construct: also called Transferrin receptor; CD71
Briefly: flow cytometry, Jurkat cells (WT, PD-1 low, PD-1 high), 2 h on ice, detection with biotinylated Cy5 (Median APC).

T1 sequence (Q15116 25-288 limits assumed): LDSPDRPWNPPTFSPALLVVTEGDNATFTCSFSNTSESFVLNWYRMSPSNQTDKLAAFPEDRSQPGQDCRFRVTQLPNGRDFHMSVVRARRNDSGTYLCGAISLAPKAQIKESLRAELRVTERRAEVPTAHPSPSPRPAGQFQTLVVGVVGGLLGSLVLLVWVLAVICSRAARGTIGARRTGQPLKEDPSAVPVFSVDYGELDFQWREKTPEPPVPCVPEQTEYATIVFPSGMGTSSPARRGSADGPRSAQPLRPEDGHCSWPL
T2 sequence (P02786 whole entry): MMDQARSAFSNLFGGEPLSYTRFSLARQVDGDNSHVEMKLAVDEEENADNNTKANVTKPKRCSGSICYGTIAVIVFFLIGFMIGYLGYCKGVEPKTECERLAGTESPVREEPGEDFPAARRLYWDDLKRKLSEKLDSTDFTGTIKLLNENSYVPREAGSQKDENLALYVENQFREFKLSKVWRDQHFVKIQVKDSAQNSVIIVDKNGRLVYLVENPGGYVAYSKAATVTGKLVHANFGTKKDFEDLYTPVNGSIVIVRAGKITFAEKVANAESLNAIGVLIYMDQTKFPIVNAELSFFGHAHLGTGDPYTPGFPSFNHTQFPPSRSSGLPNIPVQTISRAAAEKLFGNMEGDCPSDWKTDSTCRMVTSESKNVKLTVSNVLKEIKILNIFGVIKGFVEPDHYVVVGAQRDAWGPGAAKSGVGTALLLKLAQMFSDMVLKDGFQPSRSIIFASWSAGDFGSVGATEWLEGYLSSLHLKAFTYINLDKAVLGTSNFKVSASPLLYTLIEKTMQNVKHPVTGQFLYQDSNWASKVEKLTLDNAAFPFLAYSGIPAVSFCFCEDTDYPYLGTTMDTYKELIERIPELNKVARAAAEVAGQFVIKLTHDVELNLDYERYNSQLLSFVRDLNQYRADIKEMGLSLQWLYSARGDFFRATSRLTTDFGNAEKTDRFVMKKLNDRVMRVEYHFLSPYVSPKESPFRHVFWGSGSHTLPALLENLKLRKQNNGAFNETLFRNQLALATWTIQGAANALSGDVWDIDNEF

B1: bispecific 2+1 CrossMab 8156 (PD1-0103-0312/TfR(51A165) BBB-format) (bispecific antibody, human IgG1, kappa, L234A L235A)
light 1: EVQLLESGGGLVQPGGSLRLSCAASGFSFSSYTMSWVRQAPGKGLEWVATISGGGRDIYYPDSVKGRFTISRDNSKNTLYLQMNSLRAEDTAVYYCVLLTGRVYFALDSWGQGTLVTVSSASVAAPSVFIFPPSDEQLKSGTASVVCLLNNFYPREAKVQWKVDNALQSGNSQESVTEQDSKDSTYSLSSTLTLSKADYEKHKVYACEVTHQGLSSPVTKSFNRGEC
light 2: QIVLTQSPAIMSASPGEKVTVTCSASSSIRYMHWYQQKPGTSPKRWIYDTSELASGVPARFSGSGSGTSYSLTINSMEAEDAATYYCHQRSSYPFTFGGGTKLEIKRTVAAPSVFIFPPSDRKLKSGTASVVCLLNNFYPREAKVQWKVDNALQSGNSQESVTEQDSKDSTYSLSSTLTLSKADYEKHKVYACEVTHQGLSSPVTKSFNRGEC
heavy 1: DIVMTQSPDSLAVSLGERATINCKASESVDTSDNSFIHWYQQKPGQSPKLLIYRSSTLESGVPDRFSGSGSGTDFTLTISSLQAEDVAVYYCQQNYDVPWTFGQGTKVEIKSSASTKGPSVFPLAPSSKSTSGGTAALGCLVKDYFPEPVTVSWNSGALTSGVHTFPAVLQSSGLYSLSSVVTVPSSSLGTQTYICNVNHKPSNTKVDKKVEPKSCDKTHTCPPCPAPEAAGGPSVFLFPPKPKDTLMISRTPEVTCVVVDVSHEDPEVKFNWYVDGVEVHNAKTKPREEQYNSTYRVVSVLTVLHQDWLNGKEYKCKVSNKALGAPIEKTISKAKGQPREPQVCTLPPSRDELTKNQVSLSCAVKGFYPSDIAVEWESNGQPENNYKTTPPVLDSDGSFFLVSKLTVDKSRWQQGNVFSCSVMHEALHNHYTQKSLSLSPGKGGGGSGGGGSEVQLQQSGPELVKPGASVKMSCKASGYTFTSYVMHWVKQKPGQGLEWIGYVNPYNDDTKYNEKFRGKATLTSDKSSSTAYMELSSLTSEDSAVYYCARSYYYYSMDNWGQGTSVTVSSASTKGPSVFPLAPSSKSTSGGTAALGCLVEDYFPEPVTVSWNSGALTSGVHTFPAVLQSSGLYSLSSVVTVPSSSLGTQTYICNVNHKPSNTKVDEKVEPKSCD
heavy 2: not shown
Consider B1, for which the “EC50 (pM) of Granzyme B production, mMLR” value in assay [1] came out at 25.8 pM. The “Fold activity vs. control (EC50 of Granzyme B, mMLR), control 8158” value in assay [2] came to 4.44 fold vs 8158. For the same molecule, the “Fold activity vs. control (EC50 of Granzyme B, mMLR), control PD1-0103-0312” value in assay [3] worked out at 7.83 fold vs PD1-0103-0312.

B2: TfR/Nada/anti-Biotin control antibody 9903 (bispecific antibody, human IgG1, kappa, L234A L235A)
heavy 1: not shown
light 1: QIVLTQSPAIMSASPGEKVTVTCSASSSIRYMHWYQQKPGTSPKRWIYDTSELASGVPARFSGSGSGTSYSLTINSMEAEDAATYYCHQRSSYPFTFGGGTKLEIKRTVAAPSVFIFPPSDEQLKSGTASVVCLLNNFYPREAKVQWKVDNALQSGNSQESVTEQDSKDSTYSLSSTLTLSKADYEKHKVYACEVTHQGLSSPVTKSFNRGEC
heavy 2: EVQLVESGGGLVQPGGSLRLSCAASGFSIAGTAIHWVRQAPGKGLEWVASISPGGGSTAYADSVKGRFTISADTSKNTAYLQMNSLRAEDTAVYYCSRSGGSGASAMDYWGQGTLVTVSSASVAAPSVFIFPPSDEQLKSGTASVVCLLNNFYPREAKVQWKVDNALQSGNSQESVTEQDSKDSTYSLSSTLTLSKADYEKHKVYACEVTHQGLSSPVTKSFNRGECDKTHTCPPCPAPEAAGGPSVFLFPPKPKDTLMISRTPEVTCVVVDVSHEDPEVKFNWYVDGVEVHNAKTKPREEQYNSTYRVVSVLTVLHQDWLNGKEYKCKVSNKALGAPIEKTISKAKGQPREPQVCTLPPSRDELTKNQVSLSCAVKGFYPSDIAVEWESNGQPENNYKTTPPVLDSDGSFFLVSKLTVDKSRWQQGNVFSCSVMHEALHNHYTQKSLSLSPGKGGGGSGGGGSDIQMTQSPSSLSASVGDRVTITCRASGNIHNYLSWYQQKPGKVPKLLIYSAKTLADGVPSRFSGSGSGTDFTLTISSLQPEDVATYYCQHFWSSIYTFGCGTKLEIKRGGGGSGGGGSGGGGSGGGGSQVQLVQSGAEVKKPGSSVKVSCKSSGFNNKDTFFQWVRQAPGQCLEWMGRIDPANGFTKYAQKFQGRVTITADTSTSTAYMELSSLRSEDTAVYYCARWDTYGAAWFAYWGQGTLVTVSS
light 2: DIQMTQSPSSLSASVGDRVTITCRASQDVGSGVAWYQQKPGKAPKLLIGSASGLYSGVPSRFSGSRSGTDFTLTISSLQPEDFATYYCQQSASGGSTFGQGTKVEIKSSASTKGPSVFPLAPSSKSTSGGTAALGCLVKDYFPEPVTVSWNSGALTSGVHTFPAVLQSSGLYSLSSVVTVPSSSLGTQTYICNVNHKPSNTKVDKKVEPKSC
notes: monovalent for TfR; also called αTfR/Nada; Nada/αTfR
Turning to B2, the binding result in assay [4] is “binds”.

B3: bispecific 2+1 CrossMab 8157 (PD1-0103-0312/TfR(51A165) TCB-format) (bispecific antibody, human IgG1, kappa, L234A L235A)
light 1: EVQLLESGGGLVQPGGSLRLSCAASGFSFSSYTMSWVRQAPGKGLEWVATISGGGRDIYYPDSVKGRFTISRDNSKNTLYLQMNSLRAEDTAVYYCVLLTGRVYFALDSWGQGTLVTVSSASVAAPSVFIFPPSDEQLKSGTASVVCLLNNFYPREAKVQWKVDNALQSGNSQESVTEQDSKDSTYSLSSTLTLSKADYEKHKVYACEVTHQGLSSPVTKSFNRGEC
light 2: QIVLTQSPAIMSASPGEKVTVTCSASSSIRYMHWYQQKPGTSPKRWIYDTSELASGVPARFSGSGSGTSYSLTINSMEAEDAATYYCHQRSSYPFTFGGGTKLEIKRTVAAPSVFIFPPSDRKLKSGTASVVCLLNNFYPREAKVQWKVDNALQSGNSQESVTEQDSKDSTYSLSSTLTLSKADYEKHKVYACEVTHQGLSSPVTKSFNRGEC
heavy 1: DIVMTQSPDSLAVSLGERATINCKASESVDTSDNSFIHWYQQKPGQSPKLLIYRSSTLESGVPDRFSGSGSGTDFTLTISSLQAEDVAVYYCQQNYDVPWTFGQGTKVEIKSSASTKGPSVFPLAPSSKSTSGGTAALGCLVKDYFPEPVTVSWNSGALTSGVHTFPAVLQSSGLYSLSSVVTVPSSSLGTQTYICNVNHKPSNTKVDKKVEPKSCDGGGGSGGGGSEVQLQQSGPELVKPGASVKMSCKASGYTFTSYVMHWVKQKPGQGLEWIGYVNPYNDDTKYNEKFRGKATLTSDKSSSTAYMELSSLTSEDSAVYYCARSYYYYSMDNWGQGTSVTVSSASTKGPSVFPLAPSSKSTSGGTAALGCLVEDYFPEPVTVSWNSGALTSGVHTFPAVLQSSGLYSLSSVVTVPSSSLGTQTYICNVNHKPSNTKVDEKVEPKSCDKTHTCPPCPAPEAAGGPSVFLFPPKPKDTLMISRTPEVTCVVVDVSHEDPEVKFNWYVDGVEVHNAKTKPREEQYNSTYRVVSVLTVLHQDWLNGKEYKCKVSNKALGAPIEKTISKAKGQPREPQVCTLPPSRDELTKNQVSLSCAVKGFYPSDIAVEWESNGQPENNYKTTPPVLDSDGSFFLVSKLTVDKSRWQQGNVFSCSVMHEALHNHYTQKSLSLSP
heavy 2: not shown
Take B3: the “EC50 (pM) of Granzyme B production, mMLR” value in assay [1] was 12 pM. Besides, the “Fold activity vs. control (EC50 of Granzyme B, mMLR), control 8159” value in assay [2] was 16.3 fold vs 8159. Further, the “Fold activity vs. control (EC50 of Granzyme B, mMLR), control PD1-0103-0312” value in assay [3] turned out to be 6.6 fold vs PD1-0103-0312.
